Among the targets are HLA-A*03:01; HLA-B*44:02; HLA-A*01:01; HLA-A*02:01; HLA-A*24:02; HLA-B*07:02.
What all share (assay): IEDB peptide-MHC binding, purified MHC/competitive/fluorescence; filed as Kd, often an IC50 or EC50 that approximates it; ≥ and ≤ were set here for values at or beyond the usual limits of such assays
Common to all, as to conditions: source organism: Coxiella burnetii

As a reminder, the Kd is the concentration at which binding is half-saturated. A high value points to weaker binding.

The sequence ASFQNYLNDY came in with a Kd with HLA-A*03:01 of at least 1000 µM.

In the assay with HLA-A*03:01, ATSNLIYKLK gave a dissociation constant (Kd) of at least 5 µM.

In the assay with HLA-B*44:02, EEFVKTQSY showed a Kd of at least 5 µM.

For the sequence ETYNSINKY, in the assay with HLA-A*01:01, the Kd was at least 1000 µM.

In the assay with HLA-B*44:02, FEALHLLYAL registered a Kd of at least 1000 µM.

Consider FFEDFTHRY, for which the dissociation constant (Kd) with HLA-A*01:01 was at least 1000 µM.

Consider FLFFYSGLIL, for which the Kd with HLA-A*02:01 is at least 5 µM.

With FLIAVFARHL, the dissociation constant (Kd) with HLA-A*02:01 was at least 5 µM.

For GEEATAFLRY, the Kd with HLA-B*44:02 is at least 50 µM.

GVDRFITYK registered a dissociation constant (Kd) with HLA-A*03:01 of at least 5 µM.

GYHSITPYLF displayed a Kd with HLA-A*24:02 of at least 5 µM.

Turning to HTYYLIGFLY, in the assay with HLA-A*01:01, the Kd was at least 50 µM.

With IERVFYYFPL, the Kd with HLA-B*44:02 is at least 1000 µM.

As for IEVVKKYMDY, the Kd with HLA-B*44:02 is at least 1000 µM.

Consider IMIDRLIEQL, for which the Kd with HLA-A*02:01 is at least 5 µM.

ISYDRFTVGK: the Kd with HLA-A*03:01 was at least 5 µM.

The sequence IYDDRLLFEF registered a dissociation constant (Kd) with HLA-A*24:02 of at least 5 µM.

Sequence KDIQSIVHHY yielded a Kd with HLA-B*44:02 of at least 1000 µM.

Regarding KLILFVYRY, the Kd in the assay with HLA-A*03:01 is at least 50 µM.

As to KPLQVINRKY, the Kd with HLA-B*07:02 is at least 1000 µM.

For the sequence KTEQDKLSY, the Kd with HLA-A*01:01 is at least 50 µM.

In the assay with HLA-A*03:01, KTFVYPMGLY came in with a Kd of at least 5 µM.

For LLSTLCLYRK, in the assay with HLA-A*03:01, the Kd is at least 50 µM.

The sequence LLWHGVSTL yielded a Kd with HLA-A*02:01 of at least 5 µM.

Take LPQKPWWKF: the Kd with HLA-B*07:02 was at least 1000 µM.

For the sequence LPRNRYRLVF, the Kd in the assay with HLA-B*07:02 is at least 5 µM.

With LPRRHNFYNY, the Kd in the assay with HLA-B*07:02 was at least 1000 µM.

In the assay with HLA-A*03:01, LSATFITSK had a Kd of at least 5 µM.

On to LTLLLNWVNY, for which, in the assay with HLA-A*01:01, the dissociation constant Kd was at least 50 µM.

On to LYDDEFKFL, for which the Kd with HLA-A*24:02 was at least 5 µM.

For the sequence METPPQSPDF, the Kd in the assay with HLA-B*44:02 was at least 1000 µM.

Regarding MEVRDLLNSY, the Kd with HLA-B*44:02 is at least 5 µM.

Turning to MLWLPLLLIL, the dissociation constant Kd with HLA-A*02:01 is at least 5 µM.

MVEEKYNYFY showed a Kd with HLA-A*01:01 of at least 5 µM.

In the assay with HLA-B*44:02, NEIETATRY registered a Kd of at least 5 µM.

Take NFSDYIWHF: the Kd in the assay with HLA-A*24:02 was at least 5 µM.

Sequence NMFQHLPYL displayed a Kd in the assay with HLA-A*02:01 of at least 5 µM.

In the assay with HLA-A*01:01, QSGWTIHHY gave a Kd of at least 1000 µM.

As to QYLQYLWPL, the Kd in the assay with HLA-A*24:02 was at least 5 µM.

REMYSRRRMY registered a Kd with HLA-B*44:02 of at least 5 µM.

The sequence RMYISFFPL showed a Kd with HLA-A*02:01 of at least 5 µM.

On to SFVPKFFLTF, for which, in the assay with HLA-A*24:02, the Kd is at least 5 µM.

Sequence SLESGFTYY registered a dissociation constant (Kd) in the assay with HLA-A*01:01 of at least 5 µM.

As for SLFANMNGHY, the Kd in the assay with HLA-A*03:01 was at least 50 µM.

On to SPHPRVNQF, for which, in the assay with HLA-B*07:02, the Kd is at least 5 µM.

Consider TPDFPQLFF, for which, in the assay with HLA-B*07:02, the Kd is at least 50 µM.

As to TPTFVIGNKA, the Kd with HLA-B*07:02 was at least 1000 µM.

In turn, TYRHNKKLL registered a Kd in the assay with HLA-A*24:02 of at least 50 µM.

TYRVLNYKDL came in with a Kd with HLA-A*24:02 of at least 50 µM.

Take VIDDLIVYRV: in the assay with HLA-A*02:01, the Kd was at least 50 µM.

Sequence VLDCNYLSK registered a dissociation constant (Kd) with HLA-A*03:01 of at least 5 µM.

Consider VSDATVAKWY, for which the Kd in the assay with HLA-A*01:01 was at least 50 µM.

In turn, VTLVEFFDY came in with a Kd in the assay with HLA-A*01:01 of at least 1000 µM.

WYVVNNNYL: the Kd in the assay with HLA-A*24:02 was at least 5 µM.

In the assay with HLA-A*02:01, YLLDRCPFL came in with a Kd of at least 5 µM.

YLVNHPEVL had a Kd with HLA-A*02:01 of at least 50 µM.

Values taken from the Immune Epitope Database (IEDB).
